Test results: patent US20210380710A1
Values belong to the substance of their own block, whether it stands above or below them.

Columns and labels:
[1] = biological target: human CD20 on the cell surface (Raji, Ramos, Namalwa cells) (human) (UniProt P11836); experiment: cell-based or functional assay
[2] = biological target: human CD20 on the cell surface (Raji, Ramos, Namalwa cells) (human) (UniProt P11836); experiment: flow cytometry on Raji cells
[3] = biological target: human CD3 on the cell surface (Jurkat cells) (human) (UniProt P07766); experiment: flow cytometry on Jurkat cells
UniProt P07766, sequence (P07766 23-207, chain 1 of 3): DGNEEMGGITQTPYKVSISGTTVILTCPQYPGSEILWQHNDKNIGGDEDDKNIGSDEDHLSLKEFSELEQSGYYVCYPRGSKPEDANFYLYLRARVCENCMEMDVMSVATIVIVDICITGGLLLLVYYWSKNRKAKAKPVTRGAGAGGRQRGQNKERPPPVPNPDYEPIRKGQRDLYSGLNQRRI
UniProt P07766, sequence (P04234 22-171, chain 2 of 3, further chain): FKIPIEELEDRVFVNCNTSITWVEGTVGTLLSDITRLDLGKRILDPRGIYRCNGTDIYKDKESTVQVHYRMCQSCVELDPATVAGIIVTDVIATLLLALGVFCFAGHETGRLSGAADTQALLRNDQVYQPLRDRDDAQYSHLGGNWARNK
UniProt P07766, sequence (P09693 23-182, chain 3 of 3, further chain): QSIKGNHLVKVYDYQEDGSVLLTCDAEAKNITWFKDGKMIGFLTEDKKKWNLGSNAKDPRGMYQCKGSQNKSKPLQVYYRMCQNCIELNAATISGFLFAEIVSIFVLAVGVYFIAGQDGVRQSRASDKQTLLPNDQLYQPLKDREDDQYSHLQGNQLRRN

[4] = biological target: human CD20 on the cell surface (Raji, Ramos, Namalwa cells) (human) (UniProt P11836); experiment: FACS affinity on Ramos cells, FITC bead quantitation
[5] = biological target: human CD3 on the cell surface (Jurkat cells) (human) (UniProt P07766); experiment: FACS affinity on Jurkat cells, FITC bead quantitation; design: Bmax: unit not given here
[6] = biological target: human CD20 on the cell surface (Raji, Ramos, Namalwa cells) (human) (UniProt P11836); experiment: flow cytometry on Raji cells, antibody 10 ug/ml
[7] = biological target: human CD20 on the cell surface (Raji, Ramos, Namalwa cells) (human) (UniProt P11836); experiment: flow cytometry on Ramos cells, antibody 10 ug/ml
[8] = biological target: human CD3 on the cell surface (Jurkat cells) (human) (UniProt P07766); experiment: flow cytometry on Jurkat cells, antibody 10 ug/ml
[9] = biological target: PD-1.his (Homo sapiens (Human)) (UniProt Q15116); experiment: ELISA, antigen coated at 2 ug/mL, antibody 10 ug/ml; * specific binding
UniProt Q15116, sequence (Q15116 25-170 limits assumed): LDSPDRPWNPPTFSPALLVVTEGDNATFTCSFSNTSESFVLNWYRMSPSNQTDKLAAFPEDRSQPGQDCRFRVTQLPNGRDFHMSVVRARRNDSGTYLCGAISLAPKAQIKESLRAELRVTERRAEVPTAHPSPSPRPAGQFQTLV

[10] = biological target: human CD3 on the cell surface (Jurkat cells) (human) (UniProt P07766); experiment: flow cytometry on Hut78 cells (target on Hut78 not given), antibody 10 ug/ml
[11] = biological target: human CD20 on the cell surface (Raji, Ramos, Namalwa cells) (human) (UniProt P11836); experiment: flow cytometry on Raji cells, secondary antibody alone
[12] = biological target: human CD20 on the cell surface (Raji, Ramos, Namalwa cells) (human) (UniProt P11836); experiment: flow cytometry on Ramos cells, secondary antibody alone
[13] = biological target: human CD3 on the cell surface (Jurkat cells) (human) (UniProt P07766); experiment: flow cytometry on Jurkat cells, secondary antibody alone
[14] = biological target: human CD3 on the cell surface (Jurkat cells) (human) (UniProt P07766); experiment: flow cytometry on Hut78 cells (target on Hut78 not given), secondary antibody alone

UniProt P11836, sequence (P11836 whole entry): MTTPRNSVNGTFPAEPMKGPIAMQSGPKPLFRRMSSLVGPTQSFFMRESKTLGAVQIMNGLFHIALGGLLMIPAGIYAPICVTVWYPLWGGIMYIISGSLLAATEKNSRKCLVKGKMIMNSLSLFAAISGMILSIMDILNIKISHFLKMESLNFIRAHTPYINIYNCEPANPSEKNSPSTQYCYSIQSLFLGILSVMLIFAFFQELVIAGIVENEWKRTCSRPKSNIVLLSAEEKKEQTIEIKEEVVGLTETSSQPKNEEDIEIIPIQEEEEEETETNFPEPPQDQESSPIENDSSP

- EC50 of T cell activation (CD25 expression), CD4+ cells, in the presence of Raji cells [1]: 6 pM
- EC50 of T cell activation (CD25 expression), CD8+ cells, in the presence of Raji cells [1]: 18.3 pM
- EC50 [2]: 41100 pM
- EC50 [3]: 8800 pM
- Bmax [4]: 6.8e-10
- Kd [4]: 67000 pM
- Bmax [5]: 1.1e-10
- Kd [5]: 30000 pM
Substance: BMK4 (REGN1979) (bispecific antibody)
- EC50 of bispecific antibody mediated cytotoxicity, NAMALWA, 4 hours FACS based cytotoxicity assay with CD8+ T cells [1]: 31.8 pM
- EC50 of bispecific antibody mediated cytotoxicity, NAMALWA, two hour calcein release assay with CD8+ T cells [1]: 26 pM
- EC50 of bispecific antibody mediated cytotoxicity, Raji, 4 hours FACS based cytotoxicity assay with CD8+ T cells [1]: 3.12 pM
- EC50 of bispecific antibody mediated cytotoxicity, Raji, two hour calcein release assay with CD8+ T cells [1]: 2.69 pM
- EC50 of bispecific antibody mediated cytotoxicity, Ramos, two hour calcein release assay with CD8+ T cells [1]: 1.49 pM

- FACS MFI [6]: 92
- FACS MFI [7]: 68
- FACS MFI [8]: 25
- absorbance at 450 nm [9]: 3.87
- FACS MFI [10]: 61
Substance: Human IgG4K control (antibody)

- FACS MFI [7]: 63
- FACS MFI [8]: 22
- FACS MFI [10]: 38
Substance: Human IgG4L control (antibody)

- FACS MFI [11]: 67
- FACS MFI [12]: 65
- FACS MFI [13]: 21
- FACS MFI [14]: 28
Substance: goat anti-human IgG Fc-PE (Jackson, 109-115-098) (antibody)
